This assay has as its target human NK1 receptor (transiently expressed in HEK293 cells) (human) (UniProt P25103). The assay can be described thus: cell-based or functional assay.
Chain of UniProt P25103 (P25103 whole entry): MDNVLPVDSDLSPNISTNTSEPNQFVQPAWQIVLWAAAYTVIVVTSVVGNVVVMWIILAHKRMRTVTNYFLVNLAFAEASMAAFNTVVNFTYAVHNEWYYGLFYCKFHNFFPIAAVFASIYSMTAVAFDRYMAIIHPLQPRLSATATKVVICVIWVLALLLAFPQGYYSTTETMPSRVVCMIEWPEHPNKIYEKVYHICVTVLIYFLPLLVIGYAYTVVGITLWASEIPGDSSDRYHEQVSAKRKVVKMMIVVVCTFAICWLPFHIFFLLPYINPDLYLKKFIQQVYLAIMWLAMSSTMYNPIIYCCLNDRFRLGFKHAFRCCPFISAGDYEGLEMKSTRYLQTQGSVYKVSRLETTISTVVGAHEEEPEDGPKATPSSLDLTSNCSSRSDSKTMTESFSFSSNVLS

For the sequence “SPANTIDE II (peptidic analog of substance P) (peptide)”, the NK1 receptor antagonistic activity (calcium imaging, inhibition of the substance P (100 µM) induced rise in fluorescence) was 65%.
